Results taken from the nanobody polyreactivity screen of Harvey et al. (2022).

Assay: yeast display, Sf9 membrane polyspecificity reagent, FACS + sequencing; frameworks hold sequencing errors
Outline: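 Nanobodies from a synthetic yeast display library (Saccharomyces cerevisiae BJ5465), induced 36–48 hours with galactose, were stained 1 hour at 4 °C with 10% biotinylated, detergent-solubilized Sf9 membrane reagent, enriched on streptavidin microbeads, then FACS-sorted. Anti-HA (expression) and streptavidin (reagent binding) fluorescence set low and high (top ~1%) gates. Polyreactivity labels come from the gate of origin. Genes were colony-PCR amplified, MiSeq 2 × 250 sequenced and filtered by CDR length.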

QVQLVESGGGLVQAGGSLRLSCAASGRIFGIYAMGGSRQAPGKERELVASITDGTITYYADSVKGRFTISRDNAKNTVYLQMNSLKPEDTAVYYCAAGTQAHAYVVRPIEMDYWGQGTQVTVSS
polyreactivity (PSR sort gate): low polyreactivity

QVQLVESGGGLVQAGGSLRLSCAASGRIFSYYAMGWYRQAPGKERELVAAISKGGTSTYYADSVKGRFTISRDNSKNTVYLQMNRLKPEDTAVYYCAAARPKPVDYLGQGTQVTVSS
polyreactivity (PSR sort gate): high polyreactivity

QVQLVESGGGLVQAGGSLRLSCAASGRTFANYAMGWYRQAPGKERELVAAISFSTVSTYYADSVKGRFTISRDNAKNTVYLQMNSLKPEDTAVYYCAARRLGYYRKVKELDYWGQGTQVTVSS
polyreactivity (PSR sort gate): high polyreactivity

QVQLVESGGGLVQAGGSLRLSCAASGFTFYIYVMGWYRQARGKERELVAAITWSGGRTYYADSVKGRFTISRDYAKNTVYLQMNSLKPEDTAVYYCAASYPGLSYHKYEYWGQGTQVTVSS
polyreactivity (PSR sort gate): high polyreactivity

QVQLVESGGGLVQAGGSLRLSCAASGSTIHYYAMGWYRQAPGKERELVAAISSSGVSTYYADSVKGRFTISRDNAKNTVYLQMNSLKPEDTAVYYCNRASVFHYRWYYYGGQGTQVTVSS
polyreactivity (PSR sort gate): high polyreactivity

QVQLVESGGGLVQAGGSLRLSCAASGFIFNIYAMGWYRQAPGKERELVAAITFSGGSTYYADSVKGRFTISRDNAKNTVYLQMNSLKPEDTAVYYCAADYLSEYTTYDYWGQGTQVTVSS
polyreactivity (PSR sort gate): low polyreactivity

QVQLVESGGGLVQAGGSLRLSCAASGSTFLRNAMGWYRQAPGKERELVAAISLGSGSTYYADSVKGRFTISRDNAKNTVYLQMNSLKPEDTAVYYCAADVSRWLDYGYDYWGQVTQVTVSS
polyreactivity (PSR sort gate): low polyreactivity

QVQLVESGGGLVQAGGSLRLSCAASGRTFDSNTMGWYRQAPGKERELVAAITGSGGRTYYADSVKGRFTISRDNAKNSVYLQMNSLKPEDTAVYYCAARPYFYERSAGYYWGQGTQVTVSS
polyreactivity (PSR sort gate): high polyreactivity

QVQLVESGGGLVQAGGSLRLSCAASGSIFSANAMGWYRQAPGKERELVAAISRSGGRTYYADSVKGRFTISRDNAKNTVYLQMNSLKPEDTAVYYCAADKSRYSVGYDYWGQGTQVTVSS
polyreactivity (PSR sort gate): high polyreactivity

QVQLVESGGGLVQAGGSLRLSCAASGRIFLIYAMGWYRQAPGKERELVAAISWSGGSTYYADSVKGRFTISRDNAKNTVYLQMNSLKPEDTAVYYCNADDVNYGYYSWYDYWGQGTQVTVSS
polyreactivity (PSR sort gate): low polyreactivity

QVQLLESGGGLVQAGGSLRLSCAASGSIFRYNDMGWYRKAPGKETELVATITSGTNTYYADSVKGRFTISRDNAQNTVYLQMNRLKPEDTAVYYCAKSYNAWDGRTFEEMNYWGQGTQVTVSS
polyreactivity (PSR sort gate): low polyreactivity

QVQLGESGGGLVQAGGSLRLSCAASGLTFYLYAMGWYRQAPGKERELVAAITTSGGSTYYADSVKGRFTISRDTAKNTVYLQMNSLKPEDTAVYYCATQGALRGYGYWGQGTQVTVSS
polyreactivity (PSR sort gate): high polyreactivity

QVQLVESGGGLVQAGGRLRLSCAASGSIFRRYAMGWYRQAPGKERELVAAISSKGGSTYYADSVKGRFTISRDNAKNTVYLQMNSLKPEDTAVYYCNAQLVHYRFSSVFTYTIDDYWGQGTQVTVSS
polyreactivity (PSR sort gate): high polyreactivity

QVQLVESGGGLVQAGGSLRLSCAASGSIFSPYAMGWYRQAPGKERELVAAITNSGGRTYYADSVKGRFTISRDNAKNTVYLQMNSLKPEDTAVYYCNADYGKHHTDYYYWGQGTQVTVSS
polyreactivity (PSR sort gate): low polyreactivity

QVQLVESGGGLVQAGGSLRLSCAASGSTFRYYAMGWYRQAPGKERELVASITSTGSTNYADSVKGRFTISRDNAKNTVYLQMNSLKPEDTAVYYCAAYRPYFGIAYGYWGQGTQVTVSS
polyreactivity (PSR sort gate): high polyreactivity

QVQLVESGGGLVQAGGSLRLSCAASGRTFGKYAMGWYRQAPGKDRELVATISRSGGSTYYAVSVKGRFTISRDNAKNTVYLQMNSLKPEDTAVYYCNAVTSRYIWPPVVDRYHYWGQGTQVTVSS
polyreactivity (PSR sort gate): high polyreactivity

QVQLVESGGGVVQAGGSLRLSCAASGLIFRRYAMGWSRQAPGIDRELVAAISGNGGSTYYADSVKGRFTISRDNAKNTVYVQMTCLKPEDTAVYYCAARSLGIYNYWGQGTQVTVSS
polyreactivity (PSR sort gate): high polyreactivity

QVQLVESGGGLVQAGGSLRLSCAASGRTSVIYAMGWYRQAPGKERELVASIRRGGSTSYADSVKGRFTISRDNAKNTVYLQMNSLIPEDTAVYYCAATLVRRARSGPMGYWGQGTQVTVSS
polyreactivity (PSR sort gate): high polyreactivity

QVQHVESGGGLVQAGGSLRLSGAASGSTFTYNTMGWYRQAPGKERELVAAITTYGGNTYYADSVKGRFTISRDNAKNTVYLQMNSLKPEDSAVYYCAARVIFGDFDYWGQGTQVTVSS
polyreactivity (PSR sort gate): low polyreactivity

QVQLVESGGGLVQAGGSLRLSCAASGITFSSYTMGWYRQAPGKERELVAVISSGGSTNYADSVKGRFTISRDNAKNTVYLQMNSLKPEETAVYYCAARRSKYIPYYGKWYYRAFDYWGQGTQVSVSS
polyreactivity (PSR sort gate): high polyreactivity

QVQLQESGGGLMQAGGSQRLSCAASGSISSYSDMGWYRQAPGKEREFVAGIGYGTTTNYADSVKGRFTTSRDNAKNTVYLQMISMKPEDTAVYYCAAYQGNGYEFYYWGQGTQVTVRS
polyreactivity (PSR sort gate): low polyreactivity

QVQLVESAGGLVQAGGSLRLSCAASGYTSSLNAMGWYRQAPGKERELVARITTDGTSTYYADSVKGRFTISRDNAKNTVYLQMNSLKPEDTAVYYCNKRSHLYGNTPYYYWGQGTQVTVSS
polyreactivity (PSR sort gate): low polyreactivity

QVQLVESGGGLVQAGGSLRLSCAASGSIFRKNAMGRYRQAPGKERELVAAITGTGRTTYADSVKGRFTISRDNAKNTVYLQMNSLKPEDTAVYYCAADVNYYQHRLYYWGQGTQVTVSS
polyreactivity (PSR sort gate): low polyreactivity

QVQLVESGGGLVQAGGSLRLSCAASGFTFQAYAMGWYRQAPGKERELVAAINFSTGRTYYADSVKGRFTISRDNAKNTVYLQMNSLKPEDTAVYYCAADGSWTRSYDFDYWGQGTQLTVSS
polyreactivity (PSR sort gate): high polyreactivity

QVQLVESGGGLVQAGGRLRLSCAASGRIFIKNAMGWYRQAPGKESELVAAISDSGDSTYYAVSVKGRFTISRDNAKNTVYLQMNSLKPEDTAVYYCAADGADHRSEMYYWGQGTQVTVSS
polyreactivity (PSR sort gate): low polyreactivity

QDQLVESGGGLVQAGGSLRLSCAASGSTLYMYAMGWYRQAPGKERELVAAISWSDDTTYYADSVKGRFTISRDNAKNTVYLQMNSLKPEDTAVYYCNAETYYGNSFGPFSYDYWGQGTQVTVSS
polyreactivity (PSR sort gate): low polyreactivity

QVQLVESGGGLVQAGGSLRLSCAASGSILTYYAMGWYRQAPGKERELVAAINNIGGSTYYADSVKGRFTISRDNAKNTVYLQMNSLKPEDTAVYYCAKYYAWPYDYWGQGTQVTVSS
polyreactivity (PSR sort gate): low polyreactivity

QVHLVESGGGLVQAGGSLRLSCAASGRISWGYAMGWDRQAPGKERELVAVINFNGGRTYYADSVKGRFTISRDNAKNTVYLQMNSLKPEDTAVYYCAADSGYEYDYWGQGTQVTVSS
polyreactivity (PSR sort gate): low polyreactivity

QVQLVESGGGLVQAGGSLRLSCAASGSIFRTNTMGWYRQAPGKERELVAAITAIGDSTYYADSVKGRFTISRDNAKNTVYLQMNSLKPEDTAVYYCAAEKVSWGYHFYSSYDYWGQGTQVTVSS
polyreactivity (PSR sort gate): low polyreactivity

QVQLVQSGGGLVQAGGSLRLSCAASGITFWYYAMGWYRQAPGKERELVAAITGGSTYYADSVKGRFTISRDNAKNTVYLQMNSLKPEDTAVYYCNADSLFEYLDYDYWGQGTQVTVSS
polyreactivity (PSR sort gate): low polyreactivity

QVQLVESGGGLVQAGGSLRLSCAASGFTFNRYAMGWYRQAPGKEREFVAAITRRGGNTYYADSVKGRFTISRDNAKNTVYLQMNSLKPEDSAVYYCNAVFGPSSYGAKEYDYWGQGTQVTVSS
polyreactivity (PSR sort gate): high polyreactivity

QVQLQESGGGLVQAGGSLRLSCASSGSIYDDTYMGWYRQAPGKERELVATIDSGSTTNYADSVKRRITISRDNAKNTVYLQMNSLKPEDTAVYYCAAADSHIDYFDYWGQGTQVTVSS
polyreactivity (PSR sort gate): low polyreactivity
